Measured values as given in patent US20210324054A1.

Target: DN-IV quality control recombinant protein (produced by the company) (dengue virus)
Assay: BLI, antibody on AMC sensor

| Binder | Kd [nM] | koff [s⁻¹] | kon [M⁻¹ s⁻¹] |
| --- | --- | --- | --- |
| Mutation 1-23 (antibody, V domains shown) VH: EVQLQQPGPELVKPGASVKMSCKASGYTFTSYVIHWVRQKPGQGLEWIGYMNPYNDGLKYNEKFIGKAILTSDKSSSTAYMQLSSLTSEDSAVYYCTKEGLFYVFDYWGQGTSVTVSS VL: QIVLTQSPAIMSASPGEKVTMTCSATSSLSYMHWYQQKSGTSPKRWIYDSSKLASGVPVRFSGSGSGTSYSLTISSMEAEDAATYFCQQWRSDLPTFGAGTKLELKR | 3.97 | 0.00019 | 47800 |
| Mutation 1-38 (antibody, V domains shown) VH: EVQLQQPGPELVKPGASVKMSCKASGYTFTSYVIHWVRQKPGQGLEWIGYMNPYNDGLKYNEKFIGKAILTSDKSSSTAYMQLSSLTSEDSAVYYCTKEGLFYVMDYWGQGTSVTVSS VL: QIVLTQSPAIMSASPGEKVTMTCSATSSISYMHWYQQKSGTSPKRWIYDSSKLASGVPVRFSGSGSGTSYSLTISSMEAEDAATYFCQWWRSDLPTFGAGTKLELKR | 0.643 | 0.000292 | 454000 |
| Mutation 1-41 (antibody, V domains shown) VH: EVQLQQPGPELVKPGASVKMSCKASGYTFTSYVIHWVRQKPGQGLEWIGYMNPYNDGIKYNEKFIGKAILTSDKSSSTAYMQLSSLTSEDSAVYYCTREGLFYVMDYWGQGTSVTVSS VL: QIVLTQSPAIMSASPGEKVTMTCSATSSISYMHWYQQKSGTSPKRWIYDSSKLASGVPVRFSGSGSGTSYSLTISSMEAEDAATYFCQWWRSDLPTFGAGTKLELKR | 0.455 | 0.00016 | 352000 |
| Mutation 1-42 (antibody, V domains shown) VH: EVQLQQPGPELVKPGASVKMSCKASGYTFTSTVIHWVRQKPGQGLEWIGYMNPYNDGIKYNEKFIGKAILTSDKSSSTAYMQLSSLTSEDSAVYYCTREGLFYVFDYWGQGTSVTVSS VL: QIVLTQSPAIMSASPGEKVTMTCSATSSLSYMHWYQQKSGTSPKRWIYDTSKLASGVPVRFSGSGSGTSYSLTISSMEAEDAATYFCQQWRSDLPTFGAGTKLELKR | 0.532 | 0.000209 | 393000 |
| Mutation 1-36 (antibody, V domains shown) VH: EVQLQQPGPELVKPGASVKMSCKASGYTFTSTVIHWVRQKPGQGLEWIGYMNPYNDGLKYNEKFIGKAILTSDKSSSTAYMQLSSLTSEDSAVYYCTREGLFYVFDYWGQGTSVTVSS VL: QIVLTQSPAIMSASPGEKVTMTCSATSSLSYMHWYQQKSGTSPKRWIYDSSKLASGVPVRFSGSGSGTSYSLTISSMEAEDAATYFCQQWRSDLPTFGAGTKLELKR | 0.657 | 0.000282 | 429000 |
| Mutation 1-37 (antibody, V domains shown) VH: EVQLQQPGPELVKPGASVKMSCKASGYTFTSSVIHWVRQKPGQGLEWIGYMNPYNDGIKYNEKFIGKAILTSDKSSSTAYMQLSSLTSEDSAVYYCTREGLFYVFDYWGQGTSVTVSS VL: QIVLTQSPAIMSASPGEKVTMTCSATSSVSYMHWYQQKSGTSPKRWIYDTSKLASGVPVRFSGSGSGTSYSLTISSMEAEDAATYFCQYWRSDLPTFGAGTKLELKR | 3.63 | 0.000145 | 39900 |
| Mutation 1-33 (antibody, V domains shown) VH: EVQLQQPGPELVKPGASVKMSCKASGYTFTSTVIHWVRQKPGQGLEWIGYMNPYNDGLKYNEKFIGKAILTSDKSSSTAYMQLSSLTSEDSAVYYCTREGLFYVFDYWGQGTSVTVSS VL: QIVLTQSPAIMSASPGEKVTMTCSATSSISYMHWYQQKSGTSPKRWIYDSSKLASGVPVRFSGSGSGTSYSLTISSMEAEDAATYFCQWWRSDLPTFGAGTKLELKR | 0.56 | 0.000276 | 493000 |
| Mutation 1-40 (antibody, V domains shown) VH: EVQLQQPGPELVKPGASVKMSCKASGYTFTSSVIHWVRQKPGQGLEWIGYMNPYNDGLKYNEKFIGKAILTSDKSSSTAYMQLSSLTSEDSAVYYCTKEGLFYVFDYWGQGTSVTVSS VL: QIVLTQSPAIMSASPGEKVTMTCSATSSVSYMHWYQQKSGTSPKRWIYDTSKLASGVPVRFSGSGSGTSYSLTISSMEAEDAATYFCQYWRSDLPTFGAGTKLELKR | 0.671 | 0.000261 | 389000 |
| Mutation 1-39 (antibody, V domains shown) VH: EVQLQQPGPELVKPGASVKMSCKASGYTFTSTVIHWVRQKPGQGLEWIGYMNPYNDGIKYNEKFIGKAILTSDKSSSTAYMQLSSLTSEDSAVYYCTREGLFYVFDYWGQGTSVTVSS VL: QIVLTQSPAIMSASPGEKVTMTCSATSSLSYMHWYQQKSGTSPKRWIYDSSKLASGVPVRFSGSGSGTSYSLTISSMEAEDAATYFCQQWRSDLPTFGAGTKLELKR | 4.55 | 0.000186 | 40900 |
| Mutation 1-30 (antibody, V domains shown) VH: EVQLQQPGPELVKPGASVKMSCKASGYTFTSTVIHWVRQKPGQGLEWIGYMNPYNDGLKYNEKFIGKAILTSDKSSSTAYMQLSSLTSEDSAVYYCTREGLFYVMDYWGQGTSVTVSS VL: QIVLTQSPAIMSASPGEKVTMTCSATSSLSYMHWYQQKSGTSPKRWIYDTSKLASGVPVRFSGSGSGTSYSLTISSMEAEDAATYFCQYWRSDLPTFGAGTKLELKR | 3.12 | 0.000132 | 42300 |
| Mutation 1-34 (antibody, V domains shown) VH: EVQLQQPGPELVKPGASVKMSCKASGYTFTSSVIHWVRQKPGQGLEWIGYMNPYNDGIKYNEKFIGKAILTSDKSSSTAYMQLSSLTSEDSAVYYCTREGLFYVFDYWGQGTSVTVSS VL: QIVLTQSPAIMSASPGEKVTMTCSATSSLSYMHWYQQKSGTSPKRWIYDTSKLASGVPVRFSGSGSGTSYSLTISSMEAEDAATYFCQYWRSDLPTFGAGTKLELKR | 2.89 | 0.000112 | 38700 |
| Mutation 1-25 (antibody, V domains shown) VH: EVQLQQPGPELVKPGASVKMSCKASGYTFTSSVIHWVRQKPGQGLEWIGYMNPYNDGLKYNEKFIGKAILTSDKSSSTAYMQLSSLTSEDSAVYYCTREGLFYVFDYWGQGTSVTVSS VL: QIVLTQSPAIMSASPGEKVTMTCSATSSISYMHWYQQKSGTSPKRWIYDSSKLASGVPVRFSGSGSGTSYSLTISSMEAEDAATYFCQWWRSDLPTFGAGTKLELKR | 2.92 | 0.00014 | 47900 |
| Mutation 1-31 (antibody, V domains shown) VH: EVQLQQPGPELVKPGASVKMSCKASGYTFTSSVIHWVRQKPGQGLEWIGYMNPYNDGIKYNEKFIGKAILTSDKSSSTAYMQLSSLTSEDSAVYYCTREGLFYVFDYWGQGTSVTVSS VL: QIVLTQSPAIMSASPGEKVTMTCSATSSVSYMHWYQQKSGTSPKRWIYDSSKLASGVPVRFSGSGSGTSYSLTISSMEAEDAATYFCQWWRSDLPTFGAGTKLELKR | 0.579 | 0.00023 | 397000 |
| Mutation 1-35 (antibody, V domains shown) VH: EVQLQQPGPELVKPGASVKMSCKASGYTFTSYVIHWVRQKPGQGLEWIGYMNPYNDGLKYNEKFIGKAILTSDKSSSTAYMQLSSLTSEDSAVYYCTKEGLFYVMDYWGQGTSVTVSS VL: QIVLTQSPAIMSASPGEKVTMTCSATSSVSYMHWYQQKSGTSPKRWIYDSSKLASGVPVRFSGSGSGTSYSLTISSMEAEDAATYFCQWWRSDLPTFGAGTKLELKR | 0.661 | 0.000252 | 381000 |
| Mutation 1-28 (antibody, V domains shown) VH: EVQLQQPGPELVKPGASVKMSCKASGYTFTSSVIHWVRQKPGQGLEWIGYMNPYNDGIKYNEKFIGKAILTSDKSSSTAYMQLSSLTSEDSAVYYCTKEGLFYVMDYWGQGTSVTVSS VL: QIVLTQSPAIMSASPGEKVTMTCSATSSVSYMHWYQQKSGTSPKRWIYDTSKLASGVPVRFSGSGSGTSYSLTISSMEAEDAATYFCQYWRSDLPTFGAGTKLELKR | 0.591 | 0.000259 | 438000 |
| Mutation 1-24 (antibody, V domains shown) VH: EVQLQQPGPELVKPGASVKMSCKASGYTFTSTVIHWVRQKPGQGLEWIGYMNPYNDGIKYNEKFIGKAILTSDKSSSTAYMQLSSLTSEDSAVYYCTREGLFYVMDYWGQGTSVTVSS VL: QIVLTQSPAIMSASPGEKVTMTCSATSSVSYMHWYQQKSGTSPKRWIYDTSKLASGVPVRFSGSGSGTSYSLTISSMEAEDAATYFCQYWRSDLPTFGAGTKLELKR | 2.85 | 0.000133 | 46600 |
| Mutation 1-32 (antibody, V domains shown) VH: EVQLQQPGPELVKPGASVKMSCKASGYTFTSYVIHWVRQKPGQGLEWIGYMNPYNDGIKYNEKFIGKAILTSDKSSSTAYMQLSSLTSEDSAVYYCTKEGLFYVMDYWGQGTSVTVSS VL: QIVLTQSPAIMSASPGEKVTMTCSATSSVSYMHWYQQKSGTSPKRWIYDTSKLASGVPVRFSGSGSGTSYSLTISSMEAEDAATYFCQQWRSDLPTFGAGTKLELKR | 0.631 | 0.000221 | 350000 |
| Mutation 1-29 (antibody, V domains shown) VH: EVQLQQPGPELVKPGASVKMSCKASGYTFTSYVIHWVRQKPGQGLEWIGYMNPYNDGIKYNEKFIGKAILTSDKSSSTAYMQLSSLTSEDSAVYYCTREGLFYVFDYWGQGTSVTVSS VL: QIVLTQSPAIMSASPGEKVTMTCSATSSISYMHWYQQKSGTSPKRWIYDSSKLASGVPVRFSGSGSGTSYSLTISSMEAEDAATYFCQWWRSDLPTFGAGTKLELKR | 0.493 | 0.000178 | 361000 |
| Mutation 1-26 (antibody, V domains shown) VH: EVQLQQPGPELVKPGASVKMSCKASGYTFTSYVIHWVRQKPGQGLEWIGYMNPYNDGIKYNEKFIGKAILTSDKSSSTAYMQLSSLTSEDSAVYYCTREGLFYVMDYWGQGTSVTVSS VL: QIVLTQSPAIMSASPGEKVTMTCSATSSLSYMHWYQQKSGTSPKRWIYDTSKLASGVPVRFSGSGSGTSYSLTISSMEAEDAATYFCQWWRSDLPTFGAGTKLELKR | 3.61 | 0.000152 | 42100 |
| Mutation 1-27 (antibody, V domains shown) VH: EVQLQQPGPELVKPGASVKMSCKASGYTFTSTVIHWVRQKPGQGLEWIGYMNPYNDGLKYNEKFIGKAILTSDKSSSTAYMQLSSLTSEDSAVYYCTREGLFYVFDYWGQGTSVTVSS VL: QIVLTQSPAIMSASPGEKVTMTCSATSSVSYMHWYQQKSGTSPKRWIYDSSKLASGVPVRFSGSGSGTSYSLTISSMEAEDAATYFCQQWRSDLPTFGAGTKLELKR | 3.55 | 0.000149 | 42000 |
